Assay results: patent US20120045392A1 (CASE WESTERN RESERVE UNIVERSITY, published 2012)

Assays:
[1] = target: T1, pyro-Glu(3-40/42) fibrils (N-terminal pyroglutamate (pyro-Glu at Aβ position 3)); assay: SPR, fibrils
T1 construct: Fibrillar aggregate of pyro-Glu(3-40/42)-Aβ

wild-type Aβ(1-40) = target: T2, wild-type Aβ(1-40); assay: SPR (Table 1)
T2 construct: also called WT Aβ(1-40); Aβ (1-40) monomers

Aβ (1-40) fibrils = target: T3, Aβ (1-40) fibrils; assay: SPR / Europium ELISA
T3 construct: Fibrillar aggregate of wild-type Aβ(1-40)
T3 sequence (peptide, as listed by the source): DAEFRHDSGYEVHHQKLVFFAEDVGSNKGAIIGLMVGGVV

pyro-Glu(3-40/42)-Aβ [2] = target: T4, pyro-Glu(3-40/42)-Aβ (N-terminal pyroglutamate (pyro-Glu at Aβ position 3)); assay: SPR; restated as (4.2 nM) in the line below
T4 construct: also called pyro-Glu(3-40/42) monomers; N-terminally modified pyro-glutamate Aβ
T4 sequence (peptide, as listed by the source): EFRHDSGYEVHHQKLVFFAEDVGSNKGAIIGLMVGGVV

pyro-Glu(3-40/42)-Aβ [3] = target: T4, pyro-Glu(3-40/42)-Aβ; assay: SPR or EU-ELISA (Table 1). Column 5 has no head of its own and is read as under the head 'KD for pyro-Glu (3-40/42)' printed at c4. Restated as (37.3 nM) in the line below. Differs from c4 (4.17E-9); second, unheaded column (c5) beside c4 under 'KD for pyro-Glu (3-40/42)'; probably the other peptide length (3-40 or 3-42), which the patent does not state

Kd [1]: 4.53 nM
binding result (wild-type Aβ(1-40)): no binding
binding result (Aβ (1-40) fibrils): no binding
Kd (pyro-Glu(3-40/42)-Aβ [2]): 4.17 nM
Kd (pyro-Glu(3-40/42)-Aβ [3]): 37.3 nM
B1: PGA 5 (antibody, IgG1, V domains shown)
VH: EVKLVESGGGLVQPGGSLRLSCVTSGFTFTENYMSWVRQPPGKALEWLGFIRNKANGYTTEYSASVKGRFTISRDNSQSILYLQMNTLRAEDSATYYCARDWDYGSSHAMDYWGQGTSVTVSS
VL: DILLTQSPAILSVSPGERVSFSCRASQNIGTSMHWFQQRTNGSPRLLIKYASESVSGIPSRFSGSGSGTDFTLSINSVESGDIADYYCQQSNSWPFTFGSGTKLEI
notes: also called 1F2 2E3; PGAS
